For assay [1], the target named is T1, human CCR8 (C-C chemokine receptor type 8) (human, UniProt P51685 1-355).
T1 construct: whole, on cells; also called h.CCR8; HEK293T-h.CCR8
Briefly: FACS on HEK293T-h.CCR8 cells, test 2 (anti-human Alexa Fluor 647 secondary antibody). On the procedure:
(§1) The affinity of humanized monoclonal antibodies against human CCR8 was assessed using FACS. The experimental procedure was as follows: HEK293T-h.CCR8 cells were digested and collected by centrifugation, followed by three washes with pre-cooled PBS. The cells were resuspended in 1% BSA (in PBS), with 3×10\hat{ }5 cells added to each well of a 96-well V-bottom plate (50 μL per well). Prepare the antibody dilution series in 1% BSA (in PBS), starting from 40 μg/mL. Perform a 3-fold serial dilution across 10 concentration points. Add 50 μL per well to the cells, so that the final antibody concentration in the wells starts from 20 μg/mL. Mix thoroughly and incubate at 4° C. for 1 hour. The cells were collected by centrifugation, washed three times with pre-cooled PBS, resuspended in 50 μL 1% BSA (in PBS), and 1 μL of fluorescent secondary antibody (Biolegend, Catalog No.: 410708) was added to each well. The mixture was incubated at 4° C. for 30 minutes, followed by three washes with pre-cooled PBS. The cells were then resuspended in 200 μL PBS for detection.

Assay [2] deals with T1, human CCR8 (C-C chemokine receptor type …). Put plainly: cell-based or functional assay.
In assay [3] the target is T2, human CCR4 (human, UniProt P51679 1-360).
T2 construct: whole, on cells; also called h.CCR4; HEK293T-h.CCR4
T2 sequence (looked up): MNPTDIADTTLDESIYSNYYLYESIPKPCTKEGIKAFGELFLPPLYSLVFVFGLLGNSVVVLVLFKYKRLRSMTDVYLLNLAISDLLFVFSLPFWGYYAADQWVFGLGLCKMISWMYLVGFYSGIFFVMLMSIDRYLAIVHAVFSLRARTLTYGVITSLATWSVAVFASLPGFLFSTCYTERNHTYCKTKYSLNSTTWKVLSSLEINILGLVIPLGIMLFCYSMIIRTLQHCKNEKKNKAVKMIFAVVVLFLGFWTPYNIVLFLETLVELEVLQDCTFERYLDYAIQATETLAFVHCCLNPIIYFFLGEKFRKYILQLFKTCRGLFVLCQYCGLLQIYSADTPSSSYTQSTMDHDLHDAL
Briefly: FACS on HEK293T-h.CCR4 cells. On the procedure:
The specificity of humanized monoclonal antibodies against human CCR4 was assessed using FACS. HEK293T-h.CCR4 cells were collected, washed, and resuspended in 1% BSA (in PBS). Each well of a 96-well V-bottom plate received 3×10\hat{ }5 cells, followed by the addition of the test antibodies at a final concentration of 20 μg/mL and incubation at 4° C. for one hour. After washing, 1 μL of fluorescent secondary antibody (Biolegend, Catalog No.: 410708) was added, and the mixture was incubated. The cells were washed and resuspended for detection using a flow cytometer (Beckman, Model: CytoFLEX).

Assay [4] deals with T1, human CCR8 (C-C chemokine receptor type …). Put plainly: FACS on HEK293T-h.CCR8 cells, test 1. On the procedure:
as §1

Assay [5] has as its target T3, cynomolgus monkey CCR8 (cynomolgus monkey, UniProt G7NYJ2 1-355).
T3 construct: whole, on cells; also called c.CCR8; HEK293T-c.CCR8
Briefly: FACS on HEK293T-c.CCR8 cells.

The target in assay [6] is T1, human CCR8 (C-C chemokine receptor type …). Briefly: FACS on HEK293T-h.CCR8 cells, mouse antibody.
The target of assay [7] is T2, human CCR4. Briefly: FACS on HEK293T-h.CCR4 cells. As for the experimental part: Evaluate the specificity of anti-human CCR8 mouse monoclonal antibodies using FACS. The experimental steps are as follows: digest HEK293T-h.CCR4 cells, centrifuge to collect the cells, and wash three times with pre-cooled PBS. Resuspend the cells in 1% BSA (in PBS), adding 3×10\hat{ }5 cells in a volume of 50 μL to each well of a 96-well V-bottom plate. Dilute the antibody to be tested in 1% BSA (in PBS) to 20 μg/mL, take 50 μL per well, and add it to the cells, resulting in a final antibody concentration of 10 μg/mL. Mix and incubate at 4° C. for 1 hour. Centrifuge to collect the cells and wash three times with pre-cooled PBS. Resuspend the cells in 50 μL of 1% BSA (in PBS), add 1 μL of fluorescent secondary antibody to each well, mix, and incubate at 4° C. for 0.5 hours. Centrifuge to collect the cells, wash three times with pre-cooled PBS, resuspend the cells in 200 μL of PBS, and analyze them.
The source holds these as a separate data set.

Assay [8] deals with T3, cynomolgus monkey CCR8. Put plainly: FACS on HEK293T-c.CCR8 cells, mouse antibody.

As a reminder, the EC50 is the concentration needed to bring the measured effect to its halfway point.

Substitutions are numbered along the chain they refer to. Where two headings read alike, the source gives them in different places.

T3 sequence (G7NYJ2 entry or part of it): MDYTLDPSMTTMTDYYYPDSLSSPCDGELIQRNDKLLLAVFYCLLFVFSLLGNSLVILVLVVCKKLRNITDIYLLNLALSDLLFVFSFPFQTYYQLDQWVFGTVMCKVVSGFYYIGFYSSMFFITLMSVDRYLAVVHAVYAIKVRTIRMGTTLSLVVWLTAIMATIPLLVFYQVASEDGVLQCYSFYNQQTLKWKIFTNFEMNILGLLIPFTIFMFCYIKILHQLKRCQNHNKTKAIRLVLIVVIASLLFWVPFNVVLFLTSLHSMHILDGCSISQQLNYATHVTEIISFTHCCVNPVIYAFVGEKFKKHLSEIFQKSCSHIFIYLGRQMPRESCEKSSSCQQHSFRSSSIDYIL
T1 sequence (P51685 whole entry): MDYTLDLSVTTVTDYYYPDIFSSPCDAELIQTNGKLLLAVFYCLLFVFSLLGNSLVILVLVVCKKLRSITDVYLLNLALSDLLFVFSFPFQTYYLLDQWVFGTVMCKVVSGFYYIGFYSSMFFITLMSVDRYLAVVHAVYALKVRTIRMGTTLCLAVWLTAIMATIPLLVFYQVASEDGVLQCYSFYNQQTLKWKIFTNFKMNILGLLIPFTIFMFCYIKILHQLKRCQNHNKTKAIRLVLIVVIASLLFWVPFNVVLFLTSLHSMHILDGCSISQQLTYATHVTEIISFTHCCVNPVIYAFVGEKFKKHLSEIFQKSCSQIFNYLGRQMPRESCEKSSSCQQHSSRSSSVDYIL

B1: 13F3H6-hz-eADCC (13F3H6-hz with ADCC-enhanced IgG1 Fc) (antibody)
heavy: EVQLVESGGGLVQPGESLRLSCAASGFTFNAYAMNWVRQAPGQGLEWVARIRTKSNNYATYYADSVKGRFTISRDDSKNTLYLEMNSLRAEDTAVYYCVRHKKVREGYAMDYWGQGTLVTVSSASTKGPSVFPLAPSSKSTSGGTAALGCLVKDYFPEPVTVSWNSGALTSGVHTFPAVLQSSGLYSLSSVVTVPSSSLGTQTYICNVNHKPSNTKVDKKVEPKSCDKTHTCPPCPAPELVGGPSVFLLPPKPKDTLMISRTPEVTCVVVDVSHEDPEVKFNWYVDGVEVHNAKTKPPEEQYNSTLRVVSVLTVLHQDWLNGKEYKCKVSNKALPAPIEKTISKAKGQPREPQVYTLPPSREEMTKNQVSLTCLVKGFYPSDIAVEWESNGQPENNYKTTPLVLDSDGSFFLYSKLTVDKSRWQQGNVFSCSVMHEALHNHYTQKSLSLSPGK
light: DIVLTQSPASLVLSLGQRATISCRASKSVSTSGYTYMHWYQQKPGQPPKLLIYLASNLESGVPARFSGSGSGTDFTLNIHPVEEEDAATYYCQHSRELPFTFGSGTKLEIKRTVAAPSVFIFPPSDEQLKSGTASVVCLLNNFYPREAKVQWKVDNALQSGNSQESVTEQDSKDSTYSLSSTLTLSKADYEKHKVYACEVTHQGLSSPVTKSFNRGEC
notes: also called 13F3H6-eADCC
In assay [1], B1 gave an EC50 of 0.0244 µg/mL. For the same molecule, in assay [2], the “ADCC activity EC50” value turned out to be 0.00117 µg/mL; the “ADCP activity EC50” value stood at 0.0647 µg/mL; the “Inhibition rate of CCL1-mediated cell migration (%) at 50 µg/mL, BaF3-h.CCR8 cells, Transwell” value came to 73.5%.

B2: 96F1C4-hz (humanized anti-human CCR8 monoclonal antibody, human IgG1) (antibody, V domains shown)
VH: QVQLVESGAEVKKPGSSVKVSCKASGYTFTDYEMHWVRQAPGQGLEWMGAFDPKTGGTAYAQKFQGRVTLTADKSTSTAYMELSSLRSEDTAVYYCARRRFFDVWGQGTLVTVSS
VL: DAVMTQTPLSLSVTPGQPASISCRSSQSLEHSNGNTYLHWYLQKPGQSPQLLIYRVSNRFSGVPDRFSGSGSGTDFTLKISRVEAEDVGVYYCLQVTHVPFTFGQGTKVEIKR
notes: Built in the pTT5-h.IgG1 vector
B2: the binding result in the assay with human CCR4 [3] is “no binding (tested: 20 µg/mL)”. In addition, in assay [2], the “ADCC activity EC50” value was determined as 0.0052 µg/mL; the “ADCP activity EC50” value was 0.107 µg/mL; the “Inhibition rate of CCL1-mediated cell migration (%) at 50 µg/mL, BaF3-h.CCR8 cells, Transwell” value came out at 60.1%. In assay [4], this molecule gave an EC50 of 0.0796 µg/mL. For the same molecule, the binding result in the assay with cynomolgus monkey CCR8 [5] is “no binding”.

B3: 76H1F11-hz (humanized anti-human CCR8 monoclonal antibody, human IgG1) (antibody, V domains shown)
VH: B2 VH with M34I, F51I, D52K, K54E, A72S, A97T, F101Y
VL: B2 VL with N33D, N35I
With B3, the binding result with human CCR4 [3] was “no binding (tested: 20 µg/mL)”; with cynomolgus monkey CCR8 [5], “no binding”. In addition, the “ADCC activity EC50” value in assay [2] turned out to be 0.0148 µg/mL. In assay [4], the EC50 came out at 0.322 µg/mL.

B4: 13F3H6 (anti-human CCR8 mouse monoclonal antibody) (antibody, V domains shown)
VH: EVQLVESGGGLVRPKGSLKFSCAASGFTFNAYAMNWVRQAPGKGLEWVARIRTKSNNYATYYADSVKDRFTISRDDSENMLYLQMNNLKTEDTAIYYCVRHKKVREGYAMDYWGQGTSVTVSS
VL: DIVLTQSPASLVLSLGQRATISCRASKSVSTSGYTYMHWYQQKPGQPPKLLIYLASNLESGVPARFSGSGSGTDFTLNIHPVEEEDAATYYCQHSRELPFTFGSGTKLEIK
notes: Mouse antibody purified from hybridoma supernatant
For the molecule B4, the results for the EC50 (in assay [6]; with cynomolgus monkey CCR8 [8]) were 370 pM and 0.288 µg/mL, respectively. Moreover, in the assay with human CCR4 [7], the binding result is listed as “no binding (tested: 10 µg/mL)”.

B5: 96F1C4 (anti-human CCR8 mouse monoclonal antibody) (antibody, V domains shown)
VH: QVQLQQSGAELVRPGASVTLSCKASGYTFTDYEMHWVKQTPVHGLEWIGAFDPKTGGTAYNQKFKGKAILTADKSSSTAYMELRSLTSEDSAVYYCARRRFFDVWGAGTTVTVSS
VL: DAVMTQTPLSLPVSLGDQASISCRSSQSLEHSNGNTYLHWYLQKPGQSPQLLIYRVSNRFSGVLDRFSGSGSGTDFTLKISRVEAEDLGVYFCLQVTHVPFTFGTGTKLEIK
notes: as for B4
For B5, in assay [6], the EC50 was determined as 160 pM. The binding result with human CCR4 [7] was “no binding (tested: 10 µg/mL)”.

For the origin of these results see patent publication US20250388684A1 (SICHUAN SWIFTBIO BIOTECHNOLOGY, published 2025).
